In data set [1] the target is T1, BmILF (interleukin enhancer binding factor homolog) (Bombyx mori (Bm12 cell cDNA), UniProt A0A1U9WZ16 1-382).
T1 sequence: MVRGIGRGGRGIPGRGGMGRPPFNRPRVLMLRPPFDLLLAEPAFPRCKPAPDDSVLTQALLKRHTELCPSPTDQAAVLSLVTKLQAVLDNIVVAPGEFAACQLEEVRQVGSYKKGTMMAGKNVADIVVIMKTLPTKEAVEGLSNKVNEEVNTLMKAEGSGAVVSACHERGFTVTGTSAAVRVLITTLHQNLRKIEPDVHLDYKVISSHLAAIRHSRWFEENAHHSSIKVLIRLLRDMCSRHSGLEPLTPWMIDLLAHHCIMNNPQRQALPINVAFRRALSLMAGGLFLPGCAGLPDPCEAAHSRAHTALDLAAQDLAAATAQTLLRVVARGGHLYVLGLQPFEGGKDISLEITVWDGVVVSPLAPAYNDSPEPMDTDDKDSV
Nature of the data set: EMSA.

The target of data set [2] is T1, BmILF (interleukin enhancer binding …). Description: competition.
Data set [3] shares this target. Nature of the data set: EMSA. This is another data set of the same source. On the technique in general: In EMSA bound probe runs differently from free probe, usually more slowly.

The values below come from publication PMC5829645.

B1: BmPOUM2 i-motif wild-type probe (structured_DNA)
DNA: TTGTTGCCCCGCCCCTCGGCCCCCTCGCGCCCCGCACTGG
For the molecule B1, in data set [1], the binding result is “binds”.

B2: unlabeled wild-type i-motif cold probe (structured_DNA)
DNA: B1 DNA
Take B2: the binding result in data set [2] is “binds”.

B3: BmPOUM2 i-motif mutant probe (ssDNA)
DNA: TTGTTGCACTGCTACTCGGCTCACTCGCGCATCGCACTGG
B3: the binding result in data set [3] is given as “no binding”.
